# Data published in doi:10.1101/2023.12.02.569699 (bioRxiv, 2023).
# Residue numbers refer to the chain shown, from its start. Names may count otherwise.
# T1: RING1B (H. sapiens, UniProt Q99496 1-336)
# T1 sequence: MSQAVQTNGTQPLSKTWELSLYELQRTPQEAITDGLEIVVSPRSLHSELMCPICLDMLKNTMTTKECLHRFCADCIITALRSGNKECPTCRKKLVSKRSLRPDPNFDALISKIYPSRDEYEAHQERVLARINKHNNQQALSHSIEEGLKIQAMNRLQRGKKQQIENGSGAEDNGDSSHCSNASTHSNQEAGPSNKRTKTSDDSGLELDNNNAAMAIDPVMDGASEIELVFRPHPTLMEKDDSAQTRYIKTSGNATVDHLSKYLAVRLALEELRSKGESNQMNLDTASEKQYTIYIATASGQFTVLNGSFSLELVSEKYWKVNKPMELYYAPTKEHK
# B1: MBP-tagged BMI1 (natural protein)
# chain: MHRTTRIKITELNPHLMCVLCGGYFIDATTIIECLHSFCKTCIVRYLETSKYCPICDVQVHKTRPLLNIRSDKTLQDIVYKLVPGLFKNEMKRRRDFYAAHPSADAANGSNEDRGEVADEDKRIITDDEIISLSIEFFDQNRLDRKVNKDKEKSKEEVNDKRYLRCPAAMTVMHLRKFLRSKMDIPNTFQIDVMYEEEPLKDYYTLMDIAYIYTWRRNGPLPLKYRVRPTCKRMKISHQRDGLTNAGELESDSGSDKANSPAGGIPSTSSCLPSPSTPVQSPHPQFPHISSTMNGTSNSPSGNHQSSFANRPRKSSVNGSSATSSG
# B2: CBX7 (natural protein)
# chain: MELSAIGEQVFAVESIRKKRVRKGKVEYLVKWKGWPPKYSTWEPEEHILDPRLVMAYEEKEERDRASGYRKRGPKPRRLLLQESAAPDVVQTPGDWEPMEQAPEEEAEADLTNGPPPWTPTLPSSEVTVTDITANSVTVTFREAQAAEGFFRDRNEKL
# B3: CBX7(F11A) (natural protein)
# chain: B2 chain with F11A
# Target: T1, RING1B
# Assay: SEC
row,Binder,binding result
1,B1,binds
2,B2,binds
3,B3,binds
